One assay has as its system IL-1β in lacrimal glands. As to the kind of experiment: IL-1β immunohistochemistry in lacrimal gland, mouse dry eye model. In kind it is in vivo, C57BL/6. Conditions: 5 μg/ml or more of HAPLN1, after 16 days of drug treatment. Here is the method:
In this example, expression of IL-1B in lacrimal glands was identified by immunohistochemistry in order to identify an in vivo anti-inflammatory effect of the HAPLN1 protein-containing composition of the present disclosure. To this end, on the 2nd day after 16 days of drug treatment, eyes were enucleated and paraffin blocked. IHC was performed by using a prepared slide, and expression (brown) of IL-1β was identified by using an Anti-IL1β antibody (FIG. 11A). FIG. 11B is a graph illustrating quantified expression levels of IL-1β obtained in FIG. 11A.

Assay [1] relates to NFκB in human corneal epithelial cells. As to the kind of experiment: Western blot of NFκB activity under high osmotic pressure. In kind it is cell-based. The note with it: HCEC, 450 mOsM. Here is the method: In addition, the activity of NFκB that is an important transcription factor in expression of the inflammatory factors was identified by Western blot analysis (FIG. 4B). Preparation of the experiment was performed under the same conditions of those of Cytokine array performed as described above and the ELISA was performed according to the manufacturer's instructions.
(A western blot detects proteins with antibodies after separation by electrophoresis.)

The next assay has as its system CD45 in lacrimal glands. As to the kind of experiment: CD45 immunofluorescence in lacrimal gland, mouse dry eye model. The assay is classed as in vivo, C57BL/6. Conditions: after 16 days of drug treatment. Here is the method: In this example, expression of CD45 was identified in lacrimal glands in order to identify in vivo anti-inflammatory effect of the HAPLN1 protein-containing composition of the present disclosure. That is, on the 2nd day after 16 days of drug treatment, eyes were enucleated and paraffin blocked. IHC-IF was performed on a section slide, and expression (green) of CD45 was identified by using an Anti-CD45 antibody. FIG. 12B is a graph illustrating quantified expression levels of FIG. 12A.

The next assay deals with rabbit dry eye model. As to the kind of experiment: Corneal fluorescein score, 0.1% benzalkonium chloride-induced dry eye disease model. The assay is classed as in vivo, New Zealand white rabbits. The procedure:
Corneal fluorescein score assay and tear volume assay were respectively performed on eyeballs of rabbits treated with the compositions of Preparation Examples 1, 2, and 3 prepared in Example 7 above by using a 0.1% benzalkonium chloride (BAC)-induced dry eye disease (DED) model.
One drop (0.05 ml) of 0.1% benzalkonium chloride (BAC) was administered to both eyes of rabbits twice a day (9:00 and 17:00) for 14 days, and then induction of dry eye was identified by examination of eyes, and the rabbits were classified into groups.
The test substance was dropped into the groups of the rabbit model twice a day (8:30 and 16:30) (Day 15 to 30 (total of 16 days)).
Anesthesia was induced by intramuscular injection of Xylazine and Ketamine, and then one drop of Alcaine Eye Drop was administered and tear and the eye drop remaining therein were removed by using Weck-cel cellulose spear. After putting STT paper on the lower eyelid, a length of a wet region for 5 minutes was measured (STT-2). In addition, stability of the tear film was tested by measuring tear film break up time (TFBUT, measurement of time taken for the tear film to break down). Furthermore, conditions of the cornea and fluorescent staining were identified by a slit test.

Assay [2] deals with CD11 b in lacrimal glands. As to the kind of experiment: CD11 b immunofluorescence in lacrimal gland, mouse dry eye model. The assay is classed as in vivo, C57BL/6. The note with it: after 16 days of drug treatment. Here is the method: In this example, expression of CD11 b was identified in lacrimal glands in order to identify in vivo anti-inflammatory effect of the HAPLN1 protein-containing composition of the present disclosure. That is, on the 2nd day after 16 days of drug treatment, eyes were enucleated and paraffin blocked. IHC-IF was performed on a section slide, and expression (green) of CD11 b was identified by using an Anti-CD11 b antibody. FIG. 13B is a graph illustrating quantified expression levels of FIG. 13A (FIG. 13B).

Assay [3] relates to inflammatory factors (Interleukins, CCL/CXCL family, Chitinase 3-like 1) in human corneal epithelial cells. As to the kind of experiment: Human XL cytokine array of culture broth under high osmotic pressure. In kind it is cell-based. The note with it: HCEC, 450 mOsM, 24 hours. The procedure: As one of the effects the HAPLN1 protein-containing composition of the present disclosure on the relief of dry eye disease, an effect on the relief of inflammation was verified by using Human XL cytokine array (R&D Systems. ARY022B) based on expression levels of inflammatory factors (Interleukins, CCL/CXCL family, and […]).
First, the human corneal epithelial cells after 4th passage were seeded onto 6 wells and incubated for 24 hours under low osmotic pressure conditions (314 mOsM). Subsequently, the cells were incubated under high osmotic pressure conditions (450 mOsM) for 48 hours and treated with different concentrations (i.e., 10 μg/ml HAPLN 1 μl to 1 ml media->working concentration of 10 ng/ml) of the composition according to the present disclosure. Then, the cells were further incubated for 24 hours, and the culture broth was recovered therefrom, followed by an assay on the expression level of each marker by using Human XL cytokine array (R&D Systems. ARY022B). According to each of the graphs of FIG. 3B illustrating relative expression levels of the markers of the inflammatory factors in the different concentrations of the HAPLN1 protein, it was confirmed that secretion of inflammatory factors such as IL-6, IL-17A, CCL20, CXCL10, CCL5, CD54, and CD176 increased under the high osmotic pressure conditions (450 mOsM).

B1: hyaluronan and proteoglycan link protein 1 (HAPLN1) (protein, listed as Homo sapiens)
chain: MKSLLLLVLISICWADHLSDNYTLDHDRAIHIQAENGPHLLVEAEQAKVFSHRGGNVTLPCKFYRDPTAFGSGIHKIRIKWTKLTSDYLKEVDVFVSMGYHKKTYGGYQGRVFLKGGSDSDASLVITDLTLEDYGRYKCEVIEGLEDDTVVVALDLQGVVFPYFPRLGRYNLNFHEAQQACLDQDAVIASFDQLYDAWRGGLDWCNAGWLSDGSVQYPITKPREPCGGQNTVPGVRNYGFWDKDKSRYDVFCFTSNFNGRFYYLIHPTKLTYDEAVQACLNDGAQIAKVGQIFAAWKILGYDRCDAGWLADGSVRYPISRPRRRCSPTEAAVRFVGFPDKKHKLYGVYCFRAYN
B1: the “expression of IL-1β in lacrimal gland” value in the assay on IL-1β in lacrimal glands is “decreased to a level similar to that of Sham control”. Further, in assay [1], the “phosphorylation of NFκB” value is recorded as “reduced”. Besides, in the assay on CD45 in lacrimal glands, the “expression level of CD45 compared with Cyclosporine A” value is “reduced the expression level of CD45 more than Cyclosporine A” and the “expression of CD45 in lacrimal glands” value is given as “decreased”. Also, in the assay on rabbit dry eye model (after 10 days), the “reduction of CFS level compared with Restasis” value is “more than by Restasis”. Further, the CFS level result with rabbit dry eye model (eye drop 0.5, 5, 50 μg/ml b.i.d., regardless of the concentration) is on record as “consistently decreased”. Besides, in assay [2], the “expression level of CD11 b compared with Cyclosporine A” value is reported as “reduced the expression level of CD11 b more than Cyclosporine A” and the “expression of CD11 b in lacrimal glands” value is “decreased”. In assay [3] (10 to 100 ng/ml), the “expression levels of the inflammatory factors, compared with untreated groups” value is recorded as “lower than that of untreated groups”. Also, in assay [3], the “expression levels of IL-17A, Fas ligand/CD178, FGF-7, FGF-19, Angiogenin, RBP-4, and Chitinase 3-like 1” value is “reduced to the levels of normal cells”; the “expression levels of various inflammatory factors, relative to normal group (1.0)” value was “decreased to the level of the normal group or less”.

Values taken from US20250152663A1, “COMPOSITION FOR PREVENTION OR TREATMENT OF DRY EYE DISEASE COMPRISING HAPLN1” (HAPLNSCIENCE INC., priority 2021, published 2025).
